Measurements taken from patent US20250295798A1 (BEIGENE SWITZERLAND, published 2025).

Columns and labels:
hHER3-his = target: T1, hHER3-his (human, UniProt P21860 20-643); assay: SPR (BIAcore 8K), mAb captured by anti-human Fc, Her3-his as analyte, 1:1 Langmuir fit, 25 C
T1 construct: Bought reagent; also called Her3-his (cat10201-H08H, SinoBiological); not shown: his tag
Method: Binding kinetics of the mAbs to the target was determined by SPR on a BIAcore 8K (GE Healthcare). The running buffer, 10 mM HEPES, 150 mM NaCl, 0.05% v/v Surfactant P20, 3 mM EDTA, pH 7.4 (HBS-EP+, GE Healthcare) was used for immobilization and reagent dilutions. All binding kinetics were measured at 25° C. For each injection cycle, mAbs were first captured in different flow cells with an anti-human Fc antibody (Human Antibody Capture Kit, GE Healthcare) immobilized to the sensor chip (Series S CM5, GE Healthcare). Reference flow cell with no captured mAb was also used. Serial dilutions of Her3-his(cat10201-H08H, SinoBiological), and buffer blanks were injected in multiple cycles over the captured mAbs and reference surfaces for association followed by dissociation. The surfaces were regenerated with an injection of 3 M MgCl2 after each cycle. Double-referenced titration data was globally fit to a 1:1 Langmuir binding model to determine the association rate constant, ka (M−1 s−1), and the dissociation rate constant, kd (s−1), using the BIAcore Insight Evaluation Software version 2.0 (GE Healthcare). The equilibrium dissociation constant was calculated as KD(M)=kd/ka.

[1] = target: T2, human HER3 (native, on A375 cells) (human, UniProt P21860 20-1342); assay: flow cytometry (FACS) on A375 cells, anti-human IgG Alexa Fluor 647 detection, 4-parameter fit
T2 construct: whole, on cells; also called native Her3; human native Her3
Method: Cell fluorescence was quantified using a flow cytometer (Guava easyCyte 8HT, Merck-Millipore, USA). EC50 values for dose-dependent binding to human native Her3 were determined by fitting the dose-response data to the four-parameter logistic model with GraphPad Prism.

B1: mAb10 (antibody, V domains shown)
VH: EVQLLESGGGLVQPGGSLRLSCAVSGGSFSGYYWSWIRQAPGKGLEWIGEINHSGSTNYNPSLKSRFTISVDNSKNTFYLQMNSLRAEDTAVYYCARDKWTWYFDLWGRGTLVTVSS
VL: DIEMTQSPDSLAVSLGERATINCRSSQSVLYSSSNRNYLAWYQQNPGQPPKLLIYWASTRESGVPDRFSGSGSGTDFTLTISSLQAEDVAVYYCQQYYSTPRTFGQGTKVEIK
notes: Produced from heavy chain and kappa chain plasmids in CHO cells
**Q.** For B1, which Kd (hHER3-his) is on record?
**A.** Its Kd is 2.52 nM.

**Q.** And the EC50 [1]?
**A.** The EC50 was 0.83 nM.

B2: Patritumab (antibody, V domains shown)
VH: QVQLQQWGAGLLKPSETLSLTCAVYGGSFSGYYWSWIRQPPGKGLEWIGEINHSGSTNYNPSLKSRVTISVETSKNQFSLKLSSVTAADTAVYYCARDKWTWYFDLWGRGTLVTVSS
VL: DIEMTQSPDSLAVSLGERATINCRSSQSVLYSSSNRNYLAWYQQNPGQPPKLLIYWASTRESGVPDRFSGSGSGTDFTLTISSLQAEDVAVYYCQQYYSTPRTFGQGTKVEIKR
**Q.** Which Kd (hHER3-his) does the source give for B2 here?
**A.** Its Kd is 1.51 nM.

**Q.** And the EC50 [1]?
**A.** The EC50 was 0.59 nM.
